The record followed here is patent US9809653B2, “Anti-LAMP1 antibodies and antibody drug conjugates, and uses thereof” (SANOFI, priority 2012, dated 2017).

By EC50 is commonly meant the concentration at which the effect is half-maximal.

The subject of assay [1] is hybrid between murine and human LAMP1 domains. In words: Epitope ELISA on human/mouse hybrid LAMP1 extracellular domains. In kind it is binding. An excerpt:
The high level of glycosylation of the antigen required a specific approach to determine the binding site of the anti-LAMP1 mAbs on LAMP1. […] This absence of binding was used to design several chimeric LAMP1 proteins in which one or several of the LAMP1 domains (Loop1-Loop4) in the human construct were replaced by the murine counterpart. The absence of binding once the binding site of the antibody was replaced by the murine counterpart allowed for identification of the antibody binding side.
(In general: An ELISA detects its analyte on a solid surface through an enzyme-linked reagent.)

Assay [2] deals with T1, Hybrid LAMP1 / glycan-deleted LAMP1 transmembrane proteins (Mus musculus, UniProt P11438, A146K/E181G/G176S/K100R/K140R/K180R/L93T/N144D/N177S/S175N/T102A/Y92H).
T1 construct: expressed in transfected cells; host or cells: 293-F (HEK293-derived), transient transfection
T1 sequence (P11438 with tags, fused parts or gaps Y92H/L93T/K100R/T102A/K140R/N144D/A146K/S175N/G176S/N177S/K180R/E181G): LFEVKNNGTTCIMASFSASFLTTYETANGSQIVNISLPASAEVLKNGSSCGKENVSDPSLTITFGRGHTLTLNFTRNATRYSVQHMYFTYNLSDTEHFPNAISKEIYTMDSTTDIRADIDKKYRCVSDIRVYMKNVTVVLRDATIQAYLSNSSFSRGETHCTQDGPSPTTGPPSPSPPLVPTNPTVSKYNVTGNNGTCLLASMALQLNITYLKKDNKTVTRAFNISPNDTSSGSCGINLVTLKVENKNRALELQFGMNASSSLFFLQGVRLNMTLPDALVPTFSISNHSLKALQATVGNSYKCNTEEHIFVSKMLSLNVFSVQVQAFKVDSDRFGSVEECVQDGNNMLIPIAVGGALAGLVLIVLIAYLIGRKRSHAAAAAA
In words: Binding onto membrane-anchored hybrid or mutated LAMP1 proteins (293-F cells) by flow cytometry. On the set-up: species or system human/mouse. The settings on record: pXL6092 mLAMP1_hseq6-9-11_ΔGYQTI; Table 17 Experiment no2. On the procedure:
Different LAMP1 proteins were expressed at the cell membrane of HEK293 cells after transient expression from mammalian plasmids encoding the entire coding sequence of LAMP1 deleted of the intracellular lysosome-targeting motif GYQTI and substituted by a 5-Ala repeat sequence.
Two days post transfection cells were processed, analyzed by flow cytometry (Guava® easyCyte™ 8HT) as mentioned in example 4.7, and the mean fluorescence was recorded. This fluorescence represents a semi-quantitative assessment of binding.

Assay [3] has as its target T2, human LAMP1 expressed transiently at the cell surface of HEK293 (Homo sapiens, UniProt P11279).
T2 construct: expressed in transfected cells; host or cells: HEK293 (Invitrogen K9000-10), transient transfection
T2 sequence (P11279 29-417): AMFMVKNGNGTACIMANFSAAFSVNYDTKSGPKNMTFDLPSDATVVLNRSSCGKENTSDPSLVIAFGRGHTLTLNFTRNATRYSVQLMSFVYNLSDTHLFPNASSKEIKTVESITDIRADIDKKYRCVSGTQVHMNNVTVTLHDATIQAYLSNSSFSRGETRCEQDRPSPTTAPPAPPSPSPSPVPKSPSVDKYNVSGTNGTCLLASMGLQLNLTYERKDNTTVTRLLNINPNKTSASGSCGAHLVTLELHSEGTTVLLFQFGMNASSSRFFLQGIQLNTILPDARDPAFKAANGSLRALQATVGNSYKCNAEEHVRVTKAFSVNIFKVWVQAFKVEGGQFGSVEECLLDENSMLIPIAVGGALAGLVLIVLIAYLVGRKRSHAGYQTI
In words: FACS on HEK293 cells transiently transfected with human LAMP1. The conditions noted are these: transient HEK293. In kind it is binding. The source says: LAMP1 Coding DNA Sequence, RefSeq NM_005561.3 (SEQ ID NO: 23) was cloned internally. The CDS of Macaca mulatta LAMP1, RefSeq XP_001087801 (SEQ ID NO: 27) was also cloned internally. The predicted sequences of mature LAMP1 from Macaca mulatta and Macaca fascicularis are identical to 99%, said sequence differing by one additional Leucin at position 11 of Macaca mulatta (SEQ ID NO: 27), i.e. in the signal peptide. The mature LAMP1 proteins of Macaca mulatta and Macaca fascicularis are identical. Therefore the secreted LAMP1 used in the following example is referred to cynomolgus monkey. Both CDS were cloned into mammalian expression plasmids under CMV enhancer/promoter and SV40 polyA signals. HEK293 cells (Invitrogen; #K9000-10.) were transiently transfected with human LAMP1 or cynomolgus LAMP1 plasmids using FreeStyle™ MAX 293 Expression System according to the manufacturer's instructions. […] 100 μL/well of goat anti-mouse IgG conjugated with Alexa647 (Invitrogen; #A2135) was added for 45 min at 4° C. and washed three times with PBS 1% BSA. The antibody binding was evaluated after centrifugation and resuspension of cells by adding 200 μl/well PBS 1% BSA and read using Guava® easyCyte™ 8HT Flow Cytometry System. EC50 values were estimated using BIOST@T-SPEED software.

In assay [4] the target is T3, Alascan LAMP1 transmembrane proteins (hLAMP1_ΔGYQTI mutants) (Homo sapiens, UniProt P11279, D150A).
T3 construct: expressed in transfected cells; host or cells: HEK293 (293-F), transient transfection
T3 sequence (P11279 with tags, fused parts or gaps D150A): T2 sequence (P11279 29-417) with D122A, G385A, Y386A, Q387A, T388A, I389A
The experiment in a line: Ala scan of LAMP1 transmembrane proteins, flow cytometry. In kind it is binding. The settings on record: pXL6085, D150A in hLAMP1_ΔGYQTI; loss = decrease of more than 50% of the mean fluorescence. An excerpt:
Individual residues identified in example 6.5 and not involved in β-strand structure have been individually replaced by an alanine residue in the LAMP1 sequence derived from hLAMP1_ΔGYQTI and encoded in plasmid pXL5626 (example 6.4). A total of 21 plasmids were engineered from pXL5626 (see Table 19) and used to assay LAMP1 expression at the cell membrane of HEK293 cells after transient transfection. Two days post transfection cells were processed, analyzed by flow cytometry (Guava® easyCyte™ 8HT) as mentioned in example 4.7, and the mean fluorescence was recorded. This fluorescence represents a semi-quantitative assessment of binding. Loss of binding is reported on Table 19 when there is a decrease of more than 50% of the mean fluorescence compared to the control protein encoded from pXL5626.
For orientation: Flow cytometry measures light scatter and fluorescence of single cells or particles in a stream.

Where [5] appears, read: read-out: EC50 (nM) Loop1-2: hLAMP1 Loop3-4: mLAMP1.
The mark [6] stands for this setting: read-out: EC50 (nM) Loop1-3: hLAMP1 Loop4: mLAMP1.

Numbering of substitutions follows the chain as printed. Read-outs that look alike come from different tables or passages of the source.

B1: MAb2: murine monoclonal anti-LAMP1 antibody, VH SEQ ID NO: 8, VL SEQ ID NO: 12 (antibody, V domains shown)
VH: QVQLQQSAAELARPGASVKMSCKASGYTFTSYTMHWVKQRPGQGLEWIGYFNPSSGYPEYNQKFKDKTTLTADKSSNTAFIQLNSLTSEDSAVYYCSRGYYYGSRGYALDFWGQGASVTVSS
VL: NIVLTQSPVSLAVSLGQRATISCRASESVDINGNTFMHWYQQKPGQSPKLVIYAASNIESGVPARFSGSGSSTDFTFTIDPVEADDVATYYCQQNIEDPWTFGGGTKVEIK
modifications: antibod fragment; antibody fragment
Regarding B1, in assay [1], the “EC50 (nM) Loop1-2: mLAMP1 Loop3-4: hLAMP1” value was “No binding” and the “EC50 (nM) Loop1: mLAMP1 Loop2-4: hLAMP1” value is recorded as “No binding”. Also, the EC50 in assay [1] (setting [5]) is 0.25 nM. In addition, the EC50 in assay [1] (setting [6]) is 0.25 nM.

B2: MAb1: murine monoclonal anti-LAMP1 antibody, VH SEQ ID NO: 1, VL SEQ ID NO: 5 (antibody, V domains shown)
VH: QVQLQQSGAELVKPGASVKMSCKASGYIFTNYNIHWVKKSPGQGLEWIGAIYPGNGDAPYSQKFKDKATLTADKSSSTTYMQLSRLTSEDSAVYYCVRANWDVAFAYWGQGTLVSVSA
VL: DIQMTQSPPSLSASLGGKVTITCKASQDIDRYMAWYQDKPGKGPRLLIHDTSTLQPGIPSRFSGSGSGRDYSFSISNLEPEDIATYYCLQYDNLWTFGGGTKLEIK
modifications: Antibody Fragment; antibody fragment
For B2, the “EC50 (nM) Loop1-2: mLAMP1 Loop3-4: hLAMP1” value in assay [1] is recorded as “No binding”. Further, the half-maximal effective concentration (EC50) is 0.18 nM in assay [1] (setting [5]), 0.16 nM in assay [1] (setting [6]), 0.15 nM in assay [1] (read-out: EC50 (nM) Loop1: mLAMP1 Loop2-4: hLAMP1) and 14 nM in assay [3]. Moreover, the Binding call in assay [2] is “Full binding”. Moreover, the Mean fluorescence in assay [2] was 499. In addition, the “Binding to mAb, Alascan” value in assay [4] was “Binding loss”.
